# In patent US20050249719:
# T1: 33-mer gliadin peptide LQLQPFPQPQLPYPQPQLPYPQPQLPYPQPQPF
# T1 chain: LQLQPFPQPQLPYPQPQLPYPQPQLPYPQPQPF
# T2: gliadin peptide PQPQLPYPQPQLP
# T2 chain: PQPQLPYPQPQLP
# B1: human tissue transglutaminase (protein)
# chain: AEELVLERCDLELETNGRDHHTADLCREKLVVRRGQPFWLTLHFEGRNYEASVDSLTFSVVTGPAPSQEAGTKARFPLRDAVEEGDWTATVVDQQDCTLSLQLTTPANAPIGLYRLSLEASTGYQGSSFVLGHFILLFNAWCPADAVYLDSEEERQEYVLTQQGFIYQGSAKFIKNIPWNFGQFEDGILDICLILLDVNPKFLKNAGRDCSRRSSPVYVGRVVSGMVNCNDDQGVLLGRWDNNYGDGVSPMSWIGSVDILRRWKNHGCQRVKYGQCWVFAAVACTVLRCLGIPTRVVTNYNSAHDQNSNLLIEYFRNEFGEIQGDKSEMIWNFHCWVESWMTRPDLQPGYEGWQALDPTPQEKSEGTYCCGPVPVRAIKEGDLSTKYDAPFVFAEVNADVVDWIQQDDGSVHKSINRSLIVGLKISTKSVGRDEREDITHTYKYPEGSSEEREAFTRANHLNKLAEKEETGMAMRIRVGQSMNMGSDFDVFAHITNNTAEEYVCRLLLCARTVSYNGILGPECGTKYLLNLNLEPFSEKSVPLCILYEKYRDCLTESNLIKVRALLVEPVINSYLLAERDLYLENPEIKIRILGEPKQKRKLVAEVSLQNPLPVALEGCTFTVEGAGLTEEQKTVEIPDPVEAGEEVKVRMDLLPLHMGLHKLVVNFESDKLKAVKGFRNVIIGPA
# B2: Flavobacterium meningosepticum prolyl endopeptidase (recombinant, expressed in E. coli) (protein)
# chain: QNSNVLKYPETKKVSHTDTYFGTQVSDPYRWLEDDRAEDTKAWVQQEVKFTQDYLAQIPFRDQLKKQLMDIWNYEKISAPFKKGKYTYFSKNDGLQAQSVLYRKDAAGKTEVFLDPNKFSEKGTTSLASVSFNKKGTLVAYSISEGGSDWNKIIILDAETKKQLDETLLDVKFSGISWLGDEGFFYSSYDKPKEGSVLSGMTDKHKVYFHKLGTKQSQDELIIGGDKFPRRYIGAYVTDDQRYLVVSAANATNGNELYIKDLKNKTDFIPIITGFDSNVNVADTDGDTLYLFTDKDAPNKRLVKTTIQNPKAETWKDVIAETSEPLEINTGGGYFFATYMKDAIDQVKQYDKNGKLVRAIKLPGSGNASGFGGEKTEKDLYYSFTNYITPPTIFKYNVTTGNSEVYQKPKVKFNPENYVSEQVFYTSSDGTKIPMMISYKKGLKKDGKNPTILYSYGGFNISLQPAFSVVNAIWMENGGIYAVPNIRGGGEYGKKWHDAGTKMQKKNVFNDFIAAGEYLQKNGYTSKEYMALSGRSNGGLLVGATMTMRPDLAKVAFPGVGVLDMLRYNKFTAGAGWAYDYGTAEDSKEMFEYLKSYSPVHNVKAGTCYPSTMVITSDHDDRVVPAHSFKFGSELQAKQSCKNPILIRIETNAGHGAGRSTEQVVAENADLLSFALYEMGIKSLK
# Assays:
# [1] = molecular target: T1, 33-mer gliadin peptide …
# [2] = molecular target: T2, gliadin peptide PQPQLPYPQPQLP
protein,measurement,setting,value
B1,kcat/KM of deamidation,[1],kcat/KM=440 min-1 mM-1
B2,Kcat/KM,[2],178 mM^-1/s^-1
same,competitive proteolysis of the 13-mer and the 33-mer,[2],showed comparable selectivity for both peptides
same,competitive proteolysis of the 13-mer and the 33-mer,[1],showed comparable selectivity for both peptides
same,"initial rate on the 33-mer, fold against MX PEP",[1],5-fold faster on the 33-mer than the MX PEP
same,"initial rate on the 33-mer, fold against SC PEP",[1],>20 fold faster than the SC PEP
same,rate of substrate (33-mer+32-mer) disappearance,[1],2.3 µM/min (FM PEP)
same,time to hydrolyze 10 µM of the 33-mer with 0.1 µM enzyme,[1],in about 2-3 minutes
